Assay results as given in PMC12700808.

Key:
[1] = target: Nup98-type FG domain comprising 52 perfect 12-mer GLFG repeat units (prf.GLFG52x12); assay: FG phase partitioning assay
[2] = target: FG repeat domain of 669 residues with non-charged spacers and 36 FSFG motifs; assay: FG phase partitioning assay
[3] = target: Nup98-type FG domain comprising 52 perfect 12-mer GLFG repeat units (prf.GLFG52x12); assay: partitioning into an FG phase (confocal laser scanning microscopy); prf.GLFG52x12 domain phase-separated into FG particles; fluorescent species added, scanned 1 h later; 50 mM Tris-HCl pH 7.5, 150 or 250 mM NaCl, 0.5 mM IP6; signal in:out, or rim and centre normalised to wild type
[4] = target: Nup98-type FG domain comprising 52 perfect 12-mer GLFG repeat units (prf.GLFG52x12); assay: FG phase partitioning assay; remark: listed apart in the source
[5] = target: Nup98-type FG domain comprising 52 perfect 12-mer GLFG repeat units (prf.GLFG52x12); assay: FG phase partitioning assay; remark: listed apart in the source
[6] = target: Nup98-type FG domain comprising 52 perfect 12-mer GLFG repeat units (prf.GLFG52x12); assay: FG phase partitioning assay; remark: listed apart in the source
[7] = target: Nup98-type FG domain comprising 52 perfect 12-mer GLFG repeat units (prf.GLFG52x12); assay: FG phase partitioning assay; remark: listed apart in the source
[8] = fluorescence intensity at rim of FG particles
[9] = fluorescence intensity in center of FG particles
[10] = signal in center of FG particles

Substance	response [1, 8]	response [1, 9]	percent of parent ([1]; signal at rim of FG particles)	percent of parent [1, 10]	also measured
20-nm T1 pentamer-only capsid spheres (CA P1A+G60A+G61P), EGFP-labelled A92E	11000	5300	58%	28%	–
20-nm T1 pentamer-only capsid spheres (CA P1A+G60A+G61P), EGFP-labelled G89V	–	–	–	–	response [2, 8]: 31000; response [2, 9]: 34000; percent of parent ([2]; signal at rim of FG particles): 160%; percent of parent [2, 10]: 170%
20-nm T1 pentamer-only capsid spheres (CA P1A+G60A+G61P), EGFP-labelled G94D	15000	9600	79%	–	–
20-nm T1 pentamer-only capsid spheres (CA P1A+G60A+G61P), EGFP-labelled H87Q	15000	13000	79%	68%	–
20-nm T1 pentamer-only capsid spheres (CA P1A+G60A+G61P), EGFP-labelled H87Q; A92E; G94D	2300	190	12%	1%	–
20-nm T1 pentamer-only capsid spheres (CA P1A+G60A+G61P), EGFP-labelled N57A	8500	400	45%	2.1%	–
20-nm T1 pentamer-only capsid spheres (CA P1A+G60A+G61P), EGFP-labelled P90A	–	–	–	–	response [2, 8]: 45000; response [2, 9]: 51000; percent of parent ([2]; signal at rim of FG particles): 240%; percent of parent [2, 10]: 260%
20-nm T1 pentamer-only capsid spheres (CA P1A+G60A+G61P), EGFP-labelled Q9E	15000	14000	79%	74%	–
20-nm T1 pentamer-only capsid spheres (CA P1A+G60A+G61P), EGFP-labelled Q9E; A92E	5800	290	31%	1.5%	–
20-nm T1 pentamer-only capsid spheres (CA P1A+G60A+G61P), EGFP-labelled V86E; A88E; I91E; A92E	74	–	0.4%	0.4%	–
CLPs of CA A88E, filled with sinGFP4a (complex)	–	–	–	–	fold reduction of partitioning against wild type [3]: > 10 fold
CLPs of CA A92E, filled with sinGFP4a (complex)	–	–	–	–	fold reduction of partitioning against wild type [3]: > 10 fold; partitioning, percent of the wild-type level (% of the wild-type level) [3]: 5
CLPs of CA G94D, filled with sinGFP4a (complex)	–	–	–	–	partitioning, percent of the wild-type level (% of the wild-type level) [3]: 5
CLPs of CA H87E, filled with sinGFP4a (complex)	–	–	–	–	fold reduction of partitioning against wild type [3]: 15 fold
CLPs of CA H87Q, filled with sinGFP4a (complex)	–	–	–	–	reduction in partitioning against wild type [3]: 50%
CLPs of CA I91E, filled with sinGFP4a (complex)	–	–	–	–	fold reduction of partitioning against wild type [3]: > 10 fold
CLPs of CA M96E, filled with sinGFP4a (complex)	–	–	–	–	fold reduction of partitioning against wild type [3]: > 10 fold
CLPs of CA R132K, filled with sinGFP4a (complex)	–	–	–	–	reduction in partitioning against wild type [3]: 50%
CLPs of CA V86E, filled with sinGFP4a (complex)	–	–	–	–	fold reduction of partitioning against wild type [3]: > 10 fold
EGFP	–	–	–	–	partition coefficient (in:out) [3]: < 0.1
conical CLPs (capsid-like particles) of wild-type CA (CA-P1A), EGFP-labelled (complex)	–	–	–	–	partition coefficient (in:out) [3]: 1000
conical CLPs (capsid-like particles) of wild-type CA (CA-P1A), filled with sinGFP4a A77V	–	–	–	–	response [4, 8]: 27000; response [4, 9]: 29000; percent of parent [5, 10]: 94%
conical CLPs (capsid-like particles) of wild-type CA (CA-P1A), filled with sinGFP4a A88G	26000	30000	90%	90%	–

Substance	response [1, 8]	response [1, 9]	percent of parent ([1]; signal at rim of FG particles)	percent of parent [1, 10]	also measured
conical CLPs (capsid-like particles) of wild-type CA (CA-P1A), filled with sinGFP4a A92G	26000	32000	90%	90%	–
conical CLPs (capsid-like particles) of wild-type CA (CA-P1A), filled with sinGFP4a E45A	–	–	–	–	response [4, 8]: 29000; response [4, 9]: 34000; percent of parent ([5]; signal at rim of FG particles): 110%; percent of parent [5, 10]: 110%
conical CLPs (capsid-like particles) of wild-type CA (CA-P1A), filled with sinGFP4a G89V	–	–	–	–	response [4, 8]: 29000; response [4, 9]: 30000; percent of parent [5, 10]: 110%
conical CLPs (capsid-like particles) of wild-type CA (CA-P1A), filled with sinGFP4a G116A	–	–	–	–	response [4, 8]: 27000; response [4, 9]: 32000
conical CLPs (capsid-like particles) of wild-type CA (CA-P1A), filled with sinGFP4a H87G	30000	30000	–	90%	–
conical CLPs (capsid-like particles) of wild-type CA (CA-P1A), filled with sinGFP4a H87Q; A92E; G94D	8200	670	–	–	percent of parent [6, 10]: 2.6%
conical CLPs (capsid-like particles) of wild-type CA (CA-P1A), filled with sinGFP4a I91G	30000	33000	–	–	–
conical CLPs (capsid-like particles) of wild-type CA (CA-P1A), filled with sinGFP4a K182R	–	–	–	–	response [4, 8]: 28000; response [4, 9]: 34000; percent of parent [5, 10]: 110%
conical CLPs (capsid-like particles) of wild-type CA (CA-P1A), filled with sinGFP4a L136M	–	–	–	–	response [4, 8]: 28000; response [4, 9]: 30000
conical CLPs (capsid-like particles) of wild-type CA (CA-P1A), filled with sinGFP4a M96G	28000	30000	–	90%	–
conical CLPs (capsid-like particles) of wild-type CA (CA-P1A), filled with sinGFP4a N57A	23000	1800	85%	7%	response [4, 8]: 21000; response [4, 9]: 1600; percent of parent ([5]; signal at rim of FG particles): 80%
conical CLPs (capsid-like particles) of wild-type CA (CA-P1A), filled with sinGFP4a N57A; A92E	14000	1100	52%	4.2%	–
conical CLPs (capsid-like particles) of wild-type CA (CA-P1A), filled with sinGFP4a N57A; A92E; G94D	4300	660	16%	2.5%	–
conical CLPs (capsid-like particles) of wild-type CA (CA-P1A), filled with sinGFP4a N57A; G94D	17000	1200	63%	4.6%	–
conical CLPs (capsid-like particles) of wild-type CA (CA-P1A), filled with sinGFP4a N57A; H87Q; A92E; G94D	370	440	1.4%	1.7%	–
conical CLPs (capsid-like particles) of wild-type CA (CA-P1A), filled with sinGFP4a N74D	–	–	–	–	response [4, 8]: 30000; response [4, 9]: 33000; percent of parent ([5]; signal at rim of FG particles): 110%; percent of parent [5, 10]: 110%
conical CLPs (capsid-like particles) of wild-type CA (CA-P1A), filled with sinGFP4a P90A	–	–	–	–	response [4, 8]: 29000; response [4, 9]: 32000; percent of parent ([5]; signal at rim of FG particles): 110%
conical CLPs (capsid-like particles) of wild-type CA (CA-P1A), filled with sinGFP4a P123E	–	–	80%	–	response [7, 8]: 17000; response [7, 9]: 7400
conical CLPs (capsid-like particles) of wild-type CA (CA-P1A), filled with sinGFP4a Q9E; A92E	9700	660	–	–	percent of parent ([6]; signal at rim of FG particles): 36%; percent of parent [6, 10]: 2.5%
conical CLPs (capsid-like particles) of wild-type CA (CA-P1A), filled with sinGFP4a R143A	–	–	–	–	response [4, 8]: 28000; response [4, 9]: 30000
conical CLPs (capsid-like particles) of wild-type CA (CA-P1A), filled with sinGFP4a V86E; A88E; I91E; A92E	260	190	–	–	percent of parent ([6]; signal at rim of FG particles): 1%; percent of parent [6, 10]: 0.7%
conical CLPs (capsid-like particles) of wild-type CA (CA-P1A), filled with sinGFP4a V86G	27000	31000	90%	90%	–
mCherry	–	–	–	–	partition coefficient (in:out) [3]: < 0.1
